These results are taken from article PMC6181919.

For experiment [1], the target named is FLAG-tagged Ser1169Cys (S2C) C-Proα2(I) (human). As to the kind of experiment: non-reducing SDS-PAGE immunoblot; wild-type C-Proα1(I) and S2C C-Proα2(I) co-expressed at 1:1, 2:1 and 5:1; media depleted by HA immunoprecipitation, unbound fraction FLAG-immunoprecipitated, elutions on a non-reducing SDS-PAGE gel. For orientation: Immunoblotting shows a protein as a band on a membrane.

The target is the same in experiment [2]. Nature of the experiment: non-reducing SDS-PAGE immunoblot; conditioned media of transfected HEK293 cells, treated with 100 mM iodoacetamide, boiled in SDS, 12% gel, non-reducing; denaturing, shows disulfide-linked species only; two-colour detection of HA and FLAG.
For experiment [3] the target is unchanged. As to the kind of experiment: co-IP; sequential: conditioned media of co-transfected HEK293 cells, anti-FLAG beads (C-Proα2(I)), FLAG peptide elution, then HA beads (C-Proα1(I)); non-reducing, washes with 50 mM EDTA to deplete Ca^2+, 4 °C; reducing SDS-PAGE immunoblot; ratio by quantified blots.
For experiment [4], the target named is purified S2C (Ser1169Cys) C-Proα2(I), His tag cleaved (human). As to the kind of experiment: AUC; sedimentation equilibrium, 25 °C, 20 mM Bis-Tris propane pH 7, 150 mM NaCl, with 0.5 mM CaCl2; monomer to trimer.
Experiment [5] shares this target. As to the kind of experiment: AUC; sedimentation equilibrium, 25 °C, 20 mM Bis-Tris propane pH 7, 150 mM NaCl, without Ca^2+; equilibrium constants are of monomer to dimer.
In experiment [6] the target is purified wild-type C-Proα2(I), His tag cleaved (human). As to the kind of experiment: AUC; sedimentation equilibrium, 25 °C, 20 mM Bis-Tris propane pH 7, 150 mM NaCl, with 0.5 mM CaCl2; monomer to trimer.
The target is the same in experiment [7]. As to the kind of experiment: AUC; sedimentation equilibrium, 25 °C, 20 mM Bis-Tris propane pH 7, 150 mM NaCl, without Ca^2+; equilibrium constants are of monomer to dimer.
In experiment [8] the target is wild-type, FLAG-tagged C-Proα2(I) (C-propeptide domain of human Colα2(I)) (human). Nature of the experiment: co-IP; sequential: conditioned media of co-transfected HEK293 cells, anti-FLAG beads (C-Proα2(I)), FLAG peptide elution, then HA beads (C-Proα1(I)); non-reducing, washes with 50 mM EDTA to deplete Ca^2+, 4 °C; reducing SDS-PAGE immunoblot; ratio by quantified blots.
Sequence of wild-type, FLAG-tagged C-Proα2(I) (C-propeptide domain of human Colα2(I)) (human) (P08123 23-1366): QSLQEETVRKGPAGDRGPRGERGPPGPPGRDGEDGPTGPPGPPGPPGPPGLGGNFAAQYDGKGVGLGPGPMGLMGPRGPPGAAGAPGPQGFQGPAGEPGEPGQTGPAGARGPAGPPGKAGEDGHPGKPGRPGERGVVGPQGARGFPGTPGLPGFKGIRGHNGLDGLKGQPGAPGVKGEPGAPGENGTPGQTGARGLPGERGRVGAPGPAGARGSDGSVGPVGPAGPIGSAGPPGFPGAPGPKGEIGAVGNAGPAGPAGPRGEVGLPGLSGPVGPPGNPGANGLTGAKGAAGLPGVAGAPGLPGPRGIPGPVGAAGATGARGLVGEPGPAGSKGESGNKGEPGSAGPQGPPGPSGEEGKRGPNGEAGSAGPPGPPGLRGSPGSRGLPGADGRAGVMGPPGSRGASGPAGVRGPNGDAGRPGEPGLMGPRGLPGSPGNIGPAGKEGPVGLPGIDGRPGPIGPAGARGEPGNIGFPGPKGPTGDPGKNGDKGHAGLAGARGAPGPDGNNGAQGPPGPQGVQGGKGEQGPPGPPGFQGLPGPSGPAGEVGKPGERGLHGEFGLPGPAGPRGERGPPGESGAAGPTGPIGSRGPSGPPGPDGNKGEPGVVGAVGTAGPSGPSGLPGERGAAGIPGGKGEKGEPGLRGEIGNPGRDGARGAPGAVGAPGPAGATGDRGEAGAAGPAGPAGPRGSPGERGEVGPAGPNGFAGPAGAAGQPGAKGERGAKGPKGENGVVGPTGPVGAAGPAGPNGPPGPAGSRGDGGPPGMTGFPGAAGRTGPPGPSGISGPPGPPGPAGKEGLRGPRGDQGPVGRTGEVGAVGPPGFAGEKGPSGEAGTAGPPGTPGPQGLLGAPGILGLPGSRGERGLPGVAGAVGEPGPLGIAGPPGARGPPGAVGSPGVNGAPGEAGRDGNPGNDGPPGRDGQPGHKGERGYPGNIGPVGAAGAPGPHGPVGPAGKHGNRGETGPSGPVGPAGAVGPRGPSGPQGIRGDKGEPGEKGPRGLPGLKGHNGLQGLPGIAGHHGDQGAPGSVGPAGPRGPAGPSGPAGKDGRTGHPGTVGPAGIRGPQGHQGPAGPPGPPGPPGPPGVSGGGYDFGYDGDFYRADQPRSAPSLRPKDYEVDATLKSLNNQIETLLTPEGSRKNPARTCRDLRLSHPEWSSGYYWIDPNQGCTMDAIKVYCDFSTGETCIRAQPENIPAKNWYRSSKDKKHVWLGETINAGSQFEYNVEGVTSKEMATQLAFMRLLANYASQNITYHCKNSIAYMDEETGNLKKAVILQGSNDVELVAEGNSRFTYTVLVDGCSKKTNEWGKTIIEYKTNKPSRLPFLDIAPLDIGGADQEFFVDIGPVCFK

In experiment [9] the target is wild-type, HA-tagged C-Proα1(III) (human). Nature of the experiment: non-reducing SDS-PAGE immunoblot; conditioned media of transfected HEK293 cells, treated with 100 mM iodoacetamide, boiled in SDS, 12% gel, non-reducing; denaturing, shows disulfide-linked species only; two-colour detection of HA and FLAG.

What is called stoichiometry N is a count of units in the complex or per binding partner. “FLAG-tagged Ser1169Cys (S2C) C-Proα2(I) (domain or fragment)”: the stoichiometry N in [1] and in experiment [2] was 3 throughout.
Take “HA-tagged Cys1265Ser (C2S) C-Proα1(I) (from UniProt P02452 1219-1464) (domain or fragment)”: the stoichiometry N (C-Proα1(I):C-Proα2(I)) in experiment [3] came out at 0.5.
“purified S2C (Ser1169Cys) C-Proα2(I), His tag cleaved (domain or fragment)”: the stoichiometry N in [4] and in experiment [5] was 3 in each case.
In experiment [6], “purified wild-type C-Proα2(I), His tag cleaved (domain or fragment)” displayed a stoichiometry N of 3. Also, in experiment [7], the Ka stood at 6500 M⁻¹ and the stoichiometry N came out at 2.
Regarding “wild-type, HA-tagged C-Proα1(I) (C-propeptide domain of human Colα1(I)) (from UniProt P02452 1219-1464) (domain or fragment)”, the stoichiometry N (C-Proα1(I):C-Proα2(I)) in [3] and in experiment [8] was 2 throughout.
In turn, “wild-type, HA-tagged C-Proα1(III) (domain or fragment)” showed a stoichiometry N in experiment [9] of 3.
